Experimental data taken from publication PMC2850170 (The Biochemical journal, 2009).

Biological target: the molecule itself
Test: SEC

B1: murine hexosaminidase D, short form (enzyme, mouse, UniProt Q3U4H6 1-486, looked up)
chain: MSSPTPFKMRLVHLDLKGAPPKVSYLSEVFPLFHALGANGLLIEYEDMFPYEGHLRLLRAKHAYSPSEVTEILRLARLSELEVIPLVQTFGHMEFVLKHAAFAHLREVALFPNTLNPHEAESLALVQAMIDQILELHRDVRWLHIGCDEVYYLGEGETSKQWLQQEQNSHAKLCLSHMQAVASHVLTQHPGVTPLVWDDMLRDIPQEQLKASGVPQLVEPVLWDYGADLDVHGKVFLIGKYQECGFQRLWAASAFKGATGASQALPPVEHHIRNHELWLQVAGSGPKDALQGIILTGWQRYDHFSVLCELLPVGIPSLAACLQSLVHGGFAEDVRLRAERFLGVSSLEIADTVSEGAGSFPGSDIHALVTQISLHLRSSVDTLLERNRYVTGWFSPYHRRRKLVHPVMIQHIQPEALSLLSRWNNLVQQLEVALQPVFYPDTIEEWLEENVLPSLQRLQDLLQDLGEAAARQPPPTSPGWDTGQNP
stoichiometry N: 2
